Biological target: HA-GST-LC3B (UniProt Q9GZQ8 1-120)
Assay: pull-down

B1: purified FLAG-NUFIP1-HA-ZNHIT3 complex (complex)
chain 1: not shown
chain 2: MASLKCSTVVCVICLEKPKYRCPACRVPYCSVVCFRKHKEQCNPETRPVEKKIRSALPTKTVKPVENKDDDDSIADFLNSDEEEDRVSLQNLKNLGESATLRSLLLNPHLRQLMVNLDQGEDKAKLMRAYMQEPLFVEFADCCLGIVEPSQNEES
B1: binds.

Reference: article PMC6020066 (Science (New York, N.Y.), 2018)
